Data from publication PMC4080450, “The pseudo GTPase CENP-M drives human kinetochore assembly” (eLife, 2014).

Target: T1, CENP-H/His-CENP-K complex (human, UniProt Q9H3R5 1-247; Q9BS16 1-269)
T1 construct: human CENP-H, without any tag; human CENP-K; also called CENP-H/K complex; source: Tnao38 insect cells, co-expressed, purified; not shown: His6, N-terminal, kept
Assay: SEC; analytical SEC co-elution (Superdex200 5/150 or Superose6 5/150), 4°C; proteins mixed in 50 µl, at least 2 hr on ice; SEC buffer with 150 mM NaCl
Conditions: both partners purified

T1 sequence (Q9H3R5 whole entry, chain 1 of 2): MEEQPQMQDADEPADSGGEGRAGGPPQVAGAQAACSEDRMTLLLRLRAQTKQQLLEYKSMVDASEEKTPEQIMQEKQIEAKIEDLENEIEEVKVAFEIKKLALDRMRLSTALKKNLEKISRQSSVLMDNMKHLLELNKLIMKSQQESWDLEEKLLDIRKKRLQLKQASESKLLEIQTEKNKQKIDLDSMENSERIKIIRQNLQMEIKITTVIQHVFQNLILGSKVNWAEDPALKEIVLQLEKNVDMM
T1 sequence (Q9BS16 whole entry, chain 2 of 2): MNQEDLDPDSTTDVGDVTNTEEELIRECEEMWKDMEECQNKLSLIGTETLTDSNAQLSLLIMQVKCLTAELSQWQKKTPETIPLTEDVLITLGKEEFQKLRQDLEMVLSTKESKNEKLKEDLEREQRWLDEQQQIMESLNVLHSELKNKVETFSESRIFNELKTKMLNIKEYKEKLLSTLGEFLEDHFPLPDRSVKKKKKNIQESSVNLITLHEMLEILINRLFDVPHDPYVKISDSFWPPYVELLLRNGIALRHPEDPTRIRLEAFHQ

binding result: binds
B1: His-CENP-I^57–281 (domain or fragment, human, UniProt Q92674 57-281, looked up)
chain: ADDQAEEDALQMAVGYFEKGPIKASQNKDKTLEKHLKTVENVAWKNGLASEEIDILLNIALSGKFGNAVNTRILKCMIPATVISEDSVVKAVSWLCVGKCSGSTKVLFYRWLVAMFDFIDRKEQINLLYGFFFASLQDDALCPYVCHLLYLLTKKENVKPFRVRKLLDLQAKMGMQPHLQALLSLYKFFAPALISVSLPVRKKIYFKNSENLWKTALLAVKQRNR
notes: CENP-I residues 57-281; no methods paragraph tells how this fragment was made; also called N-terminal region of CENP-I; I^N; source: recombinant, expressed in a soluble form
